# Source: the supplement of paper PMC7877785
# ± gives the uncertainty stated by the source.
# Assay: self-splicing fitness, log relative to wild type (ln ratio); higher = more splicing; Tetrahymena group I intron in knt gene, E. coli kanamycin selection, DiMSum; sequences stand for … in CUCUCU…GGAGGGAAAAGUUAUCAGGCAUGCACCUGGUAGCUAGUCUUUAAACCAAUAGAUUGCAUCGGUUUAAAAGGCAAGACCGUCAAAUUGCGGGAAAGGGGUCAACAGCCGUUCAGUACCAAGUCUCAGGGGAAACUUUGAGAUGGCCUUGCAAAGGGUAUGGUAAUAAGCUGACGGACAUGGUCCUAACCACGCAGCCAAGUCCUAAGUCAACAGAUCUUCUGUUGAUAUGGAUGCAGUUCACAGACUAAAUGUCGGUCGGGGAAGAUGUAUUCUUCUCAUAAGAUAUAGUCGGACCUCUCCUUAAUGGGAGCUAGCGGAUGAAGUGAUGCAACACUGGAGCCGCUGGGAACUAAUUUGUAUGCGAAAGUAUAUUGAUUAGUUUUGGAGUACUCGUGGUCG
# Method in brief: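 Library with all eight P1ex-region intron nucleotides randomised, intron inside the knt kanamycin-resistance gene on pET-22b(+), in E. coli BL21(DE3). Cells grew overnight at 37°C or 30°C on LB agar with or without 25 μg/mL kanamycin (plus 100 μg/mL carbenicillin, 50 μM IPTG, 0.2% rhamnose), in six replicate transformations. Pooled colonies were amplicon-sequenced on Illumina HiSeq 2500. DiMSum fitness is the error-weighted combination of wild-type-normalised replicate fold changes, kanamycin versus none.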
Sequence,self-splicing fitness (ln) (37 °C),self-splicing fitness (ln) (30 °C)
UAGGAGCAAUAUUACGAAAG,-1.17 ± 0.23,
UAGGAGCAAUAUUACGAAAU,-2.31 ± 0.42,-2.12 ± 0.28
UAGGAGCAAUAUUACGAAUU,-2.22 ± 0.48,-2.72 ± 0.3
UAGGAGCAAUAUUACGAGGU,-2.42 ± 0.32,
UAGGAGCAAUAUUACGAUGA,-1.53 ± 0.21,-2.75 ± 0.26
UAGGAGCAAUAUUACGCAGC,-2.79 ± 0.36,
UAGGAGCAAUAUUACGCAUA,-1.78 ± 0.17,-2.01 ± 0.19
UAGGAGCAAUAUUACGCGAG,-0.56 ± 0.13,-2.32 ± 0.16
UAGGAGCAAUAUUACGCUCC,-2.28 ± 0.25,
UAGGAGCAAUAUUACGCUUC,,-2.64 ± 0.35
UAGGAGCAAUAUUACGGAUG,-1.69 ± 0.11,-3.62 ± 0.12
UAGGAGCAAUAUUACGGAUU,-2.98 ± 0.38,-3.92 ± 0.25
UAGGAGCAAUAUUACGGCAU,-1.5 ± 0.25,-4.07 ± 0.39
UAGGAGCAAUAUUACGGCUG,0.65 ± 0.2,-0.891 ± 0.16
UAGGAGCAAUAUUACGUUCU,-2.54 ± 0.27,-3.31 ± 0.36
UAGUAGCAAUAUUACGAAAU,,-2.89 ± 0.33
UAGUAGCAAUAUUACGAGAG,-2.67 ± 0.18,-3.43 ± 0.24
UAGUAGCAAUAUUACGAUUG,-0.0425 ± 0.12,-0.0683 ± 0.084
UAGUAGCAAUAUUACGCAGU,-1.02 ± 0.14,-2.65 ± 0.21
UAGUAGCAAUAUUACGCCAC,-1.56 ± 0.4,
UAGUAGCAAUAUUACGCGGG,-2.49 ± 0.39,-4.02 ± 0.34
UAGUAGCAAUAUUACGCUAU,-1.16 ± 0.25,-1.34 ± 0.21
UAGUAGCAAUAUUACGCUCC,-0.239 ± 0.45,-2.38 ± 0.45
UAGUAGCAAUAUUACGGAAA,-1.49 ± 0.3,
UAGUAGCAAUAUUACGGCCA,0.0405 ± 0.27,-1.22 ± 0.26

Sequence,self-splicing fitness (ln) (37 °C),self-splicing fitness (ln) (30 °C)
UAGUAGCAAUAUUACGGCGC,-1.4 ± 0.44,-1.6 ± 0.46
UAGUAGCAAUAUUACGGGUC,-2.97 ± 0.47,-4.67 ± 0.46
UAGUAGCAAUAUUACGGGUU,-2.66 ± 0.2,-3.97 ± 0.27
UAGUAGCAAUAUUACGUACC,-1.21 ± 0.27,-2.29 ± 0.37
UAGUAGCAAUAUUACGUCCG,-0.323 ± 0.36,-0.377 ± 0.21
UAGUAGCAAUAUUACGUUGC,-1.53 ± 0.44,
UAUAAGCAAUAUUACGACAC,-1.05 ± 0.26,-1.87 ± 0.21
UAUAAGCAAUAUUACGACAU,-0.413 ± 0.033,-1.09 ± 0.014
UAUAAGCAAUAUUACGACUC,-0.355 ± 0.14,-1.51 ± 0.14
UAUAAGCAAUAUUACGCAAU,-2.1 ± 0.15,-2.11 ± 0.13
UAUAAGCAAUAUUACGCCUA,0.0424 ± 0.17,0.213 ± 0.12
UAUAAGCAAUAUUACGCCUU,-0.179 ± 0.12,-1.31 ± 0.1
UAUAAGCAAUAUUACGCGCU,0.225 ± 0.23,-0.854 ± 0.18
UAUAAGCAAUAUUACGGACA,0.416 ± 0.13,-0.702 ± 0.11
UAUAAGCAAUAUUACGGAUA,-0.208 ± 0.13,-0.466 ± 0.13
UAUAAGCAAUAUUACGGAUC,-1.58 ± 0.18,-2.57 ± 0.15
UAUAAGCAAUAUUACGUCCU,0.43 ± 0.14,-1.28 ± 0.11
UAUAAGCAAUAUUACGUCGA,-0.891 ± 0.16,-1.56 ± 0.14
UAUAAGCAAUAUUACGUGGG,-2.05 ± 0.12,-2.83 ± 0.14
UAUCAGCAAUAUUACGAAAG,-1.21 ± 0.17,-1.62 ± 0.12
UAUCAGCAAUAUUACGAACC,-0.148 ± 0.38,-1.66 ± 0.24
UAUCAGCAAUAUUACGAACU,0.231 ± 0.13,-1.2 ± 0.14
UAUCAGCAAUAUUACGAAGC,-2.09 ± 0.31,-3.75 ± 0.36
UAUCAGCAAUAUUACGAUAG,0.204 ± 0.15,-0.799 ± 0.11
UAUCAGCAAUAUUACGCCAU,-1.55 ± 0.28,-1.73 ± 0.27

Sequence,self-splicing fitness (ln) (37 °C),self-splicing fitness (ln) (30 °C)
UAUCAGCAAUAUUACGCCGG,0.843 ± 0.26,-0.251 ± 0.22
UAUCAGCAAUAUUACGCGCA,0.506 ± 0.11,-0.571 ± 0.091
UAUCAGCAAUAUUACGCGCG,-0.0803 ± 0.1,0.181 ± 0.08
UAUCAGCAAUAUUACGCGUG,-0.319 ± 0.075,-0.43 ± 0.062
UAUCAGCAAUAUUACGGCCU,0.0592 ± 0.12,-1.64 ± 0.1
UAUCAGCAAUAUUACGGUAG,0.0233 ± 0.087,-1.26 ± 0.083
UAUCAGCAAUAUUACGGUUU,-0.507 ± 0.07,-0.764 ± 0.062
UAUCAGCAAUAUUACGUACC,-0.91 ± 0.21,-2.13 ± 0.18
UAUCAGCAAUAUUACGUAUA,-0.258 ± 0.1,-0.696 ± 0.088
UAUCAGCAAUAUUACGUCGU,-1.6 ± 0.1,-3.02 ± 0.12
UAUCAGCAAUAUUACGUGAA,0.371 ± 0.11,-0.844 ± 0.083
UAUCAGCAAUAUUACGUGAG,0.101 ± 0.084,0.239 ± 0.054
UAUCAGCAAUAUUACGUGCG,0.327 ± 0.11,-0.0936 ± 0.087
UAUCAGCAAUAUUACGUUUC,-1.73 ± 0.22,-2.67 ± 0.21
UAUGAGCAAUAUUACGAACG,-1.13 ± 0.16,-2.98 ± 0.19
UAUGAGCAAUAUUACGAAUC,-1.07 ± 0.26,
UAUGAGCAAUAUUACGAGAG,-2.72 ± 0.38,-2.42 ± 0.43
UAUGAGCAAUAUUACGCAAC,-2.49 ± 0.44,-2.22 ± 0.32
UAUGAGCAAUAUUACGCCGG,-0.905 ± 0.19,-1.7 ± 0.11
UAUGAGCAAUAUUACGCUUA,-1.47 ± 0.26,-3.19 ± 0.41
UAUGAGCAAUAUUACGGACC,-2.43 ± 0.31,-2.56 ± 0.41
UAUGAGCAAUAUUACGGCUA,-1.16 ± 0.16,-0.67 ± 0.14
UAUGAGCAAUAUUACGGUAC,-2.66 ± 0.48,-4.01 ± 0.43
UAUGAGCAAUAUUACGGUUC,-3.82 ± 0.46,-3.43 ± 0.19
UAUGAGCAAUAUUACGUAAG,-2.16 ± 0.19,

Sequence,self-splicing fitness (ln) (37 °C),self-splicing fitness (ln) (30 °C)
UAUGAGCAAUAUUACGUAAU,-2.34 ± 0.35,-2.35 ± 0.17
UAUGAGCAAUAUUACGUCCG,-2.19 ± 0.43,
UAUGAGCAAUAUUACGUCUG,-0.416 ± 0.15,-0.9 ± 0.13
UAUGAGCAAUAUUACGUGGU,-2.75 ± 0.31,
UAUGAGCAAUAUUACGUUGU,-2.27 ± 0.18,-4.16 ± 0.24
UAUUAGCAAUAUUACGAACC,,-0.688 ± 0.36
UAUUAGCAAUAUUACGACAA,-0.127 ± 0.24,-0.602 ± 0.17
UAUUAGCAAUAUUACGACCU,-0.551 ± 0.15,-1.41 ± 0.16
UAUUAGCAAUAUUACGAGCA,-0.18 ± 0.17,-0.606 ± 0.12
UAUUAGCAAUAUUACGAGGG,-2.13 ± 0.3,-3.12 ± 0.3
UAUUAGCAAUAUUACGAGUU,-0.971 ± 0.15,-2.88 ± 0.16
UAUUAGCAAUAUUACGCACU,-1.12 ± 0.16,-1.04 ± 0.19
UAUUAGCAAUAUUACGCAUU,-1.48 ± 0.17,-2.09 ± 0.15
UAUUAGCAAUAUUACGCCAU,-1.68 ± 0.21,
UAUUAGCAAUAUUACGCGAC,-1.41 ± 0.24,-3.03 ± 0.25
UAUUAGCAAUAUUACGCGUU,-0.613 ± 0.15,-3.05 ± 0.19
UAUUAGCAAUAUUACGCUGU,0.0696 ± 0.22,-2.57 ± 0.23
UAUUAGCAAUAUUACGCUUU,-0.435 ± 0.18,-2.01 ± 0.16
UAUUAGCAAUAUUACGGAGC,,-2.4 ± 0.42
UAUUAGCAAUAUUACGUAUA,-2.03 ± 0.21,-1.6 ± 0.18
UAUUAGCAAUAUUACGUAUG,-0.344 ± 0.17,-1.65 ± 0.15
UAUUAGCAAUAUUACGUGCG,-0.636 ± 0.12,-0.929 ± 0.079
UAUUAGCAAUAUUACGUGUA,-0.828 ± 0.16,-1.21 ± 0.16
UAUUAGCAAUAUUACGUUCU,-1.19 ± 0.17,-2.64 ± 0.24
UCAAAGCAAUAUUACGAAAU,-2.53 ± 0.27,-2.52 ± 0.2
